Several values for one entry are separate records, joined by “and”; a condition that tells them apart may be missing. Identical values can stand only once. Like-named read-outs stand apart in the source and are kept apart here.
Assays:
CT26 colon cancer cells = assay type: in vivo; details: for median survival: isotype control 17 days; for complete tumor regression: number of mice with complete regression per group; for tumor growth inhibition (TGI): relative to the isotype control
Description: (§1) The efficacy of the combination of an antibody molecule that binds MSLN and CD137 and a chemotherapeutic in enhancing an anti-cancer immune response compared to monotherapy with either the antibody molecule that binds MSLN and CD137 or the chemotherapeutic was assessed by studying the average tumour volume over time and prolonged survival in mouse tumour models. These mouse tumor models are described in more detail below.
(§2) CT26 cells were obtained from ATCC and cultured in RPMI media containing 2 mM L-glutamine, 10 mM HEPES, 1 mM sodium pyruvate, 4500 mg/L glucose, 1500 mg/L sodium bicarbonate, and 10% fetal bovine serum (FBS). JC cells were obtained from ATCC and were maintained in vitro as a monolayer culture at WuXi in RPMI-1640 supplemented with 10% heat-inactivated FBS. These tumor cell lines were individually maintained in vitro as monolayer cultures and grown at 37° C. in an atmosphere of 5% CO2. The cells were routinely sub-cultured twice weekly by TrypLE treatment. The cells growing in an exponential growth phase were harvested and counted for tumor inoculation. Wild-type BALB/c female mice were purchased from Charles River Laboratories, or from Lingchang Biological Technology Co. LTD. All mice were 8-12 weeks old at the start of studies and were housed and maintained as described below, under conditions that conform to The Guide for the Care and Use of Laboratory Animals, 8th Edition. All animal experiments were performed in accordance with EMD Serono Research Institutional (protocol 17-008, 20-005) and Wuxi AppTec Animal Care and Use Committee (IACUC) guidelines.
(§3) CT26 and JC tumor models were used to investigate the antitumor effect of a combination of an antibody molecule that binds MSLN and CD137 and a chemotherapeutic compared to monotherapy with the antibody molecule that binds MSLN and CD137 or the chemotherapeutic. Mice were treated with the anti-mMSLN-mCD137-huIgG1-LALA antibody molecule FS122m in combination with either of the two chemotherapeutics cisplatin or gemcitabine. For the CT26 model, female BALB/c mice were inoculated via subcutaneous (sc) injection in the right flank with 0.3×10^6 CT26 cells in 0.1 mL of PBS. Mice were randomized to treatment groups (n=10 mice/group) when the average tumor volume reached approximately 50-100 mm^3. For the JC model, female BALB/c mice were inoculated via sc injection at the right upper flank with JC tumor cells (5×10^6) in 0.1 mL of PBS. Treatments were started on day 14 after tumor inoculation when the average tumor size reached approximately 80 mm^3. FS122m and anti-HEL hIgG1 LALA isotype control were given as 5 mg/kg on the first, third and fifth day of treatment (Days 0, 2, and 4) via intraperitoneal (ip) injection. Cisplatin was given on Day 0 at 10 mg/kg via ip injection, and gemcitabine was given on Day 0 at 120 mg/kg via ip injection.
(§4) Mortality checks were performed once daily. Animals were checked daily for any effects of tumor growth and treatments on normal behavior such as mobility, food and water consumption (by looking only), eye/hair matting and any other abnormal effect as stated in the protocol. Body weights were recorded twice weekly and any mouse with a 20% loss of initial body weight loss was humanely sacrificed. Mice were humanely euthanized if their subcutaneous tumors reached a volume of 2500 mm^3.
(§5) Body weight was measured and recorded twice weekly until an endpoint was reached. Tumor sizes were measured twice per week in three dimensions using a caliper, and the volume was expressed in mm^3 using the formula: width×length×height×0.5236.
(§6) Differences in tumor growth between treatment groups were determined using two-way analysis of variance (ANOVA) and Tukey's Multiple Comparisons Test. The significance of survival was determined using Log-rank (Mantel-Cox) test. […]

JC breast cancer cells = assay type: in vivo; details: for tumor growth inhibition (TGI): FS122m 5 mg/kg ip Days 0, 2, 4; for complete tumor regression: number of mice with complete regression per group
Description: as §1, §2, §3, §4, §5, §6

CD137 = biological target: T1, CD137 (Homo sapiens, UniProt Q07011); details: monotherapy clinical studies, suspended; cited from earlier work
T1 construct: Clinical studies of both utomilumab and urelumab monotherapy were however suspended; host or cells: patients (endogenous CD137)
T1 sequence (Q07011 24-255): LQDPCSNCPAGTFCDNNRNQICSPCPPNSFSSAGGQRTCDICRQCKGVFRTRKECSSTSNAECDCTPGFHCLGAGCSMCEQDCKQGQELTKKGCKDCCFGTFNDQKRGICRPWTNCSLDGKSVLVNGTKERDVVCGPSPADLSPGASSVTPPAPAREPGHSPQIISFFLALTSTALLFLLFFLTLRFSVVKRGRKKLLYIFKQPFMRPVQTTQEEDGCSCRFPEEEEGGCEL

mouse MSLN = biological target: T2, mouse MSLN (Mus musculus, UniProt Q61468); assay: Binding / cross-reactivity to mouse MSLN
T2 sequence (Q61468 36-600): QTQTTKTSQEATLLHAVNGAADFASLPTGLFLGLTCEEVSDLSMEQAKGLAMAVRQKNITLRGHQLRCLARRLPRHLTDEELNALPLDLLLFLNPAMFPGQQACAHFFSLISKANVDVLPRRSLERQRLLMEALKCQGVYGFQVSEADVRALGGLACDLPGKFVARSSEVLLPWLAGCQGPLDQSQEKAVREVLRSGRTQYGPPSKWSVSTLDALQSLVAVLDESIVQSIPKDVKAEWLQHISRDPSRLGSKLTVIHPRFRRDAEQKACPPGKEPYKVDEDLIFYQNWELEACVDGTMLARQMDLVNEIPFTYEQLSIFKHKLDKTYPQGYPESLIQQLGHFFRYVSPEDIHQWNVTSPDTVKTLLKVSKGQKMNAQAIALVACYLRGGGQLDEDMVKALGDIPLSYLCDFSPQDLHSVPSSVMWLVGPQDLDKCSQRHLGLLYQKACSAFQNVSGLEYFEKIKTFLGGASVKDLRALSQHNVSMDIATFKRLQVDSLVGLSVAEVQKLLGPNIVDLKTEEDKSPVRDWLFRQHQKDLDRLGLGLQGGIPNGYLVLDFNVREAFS

mouse CD137 = mouse CD137 (Mus musculus, UniProt P20334); assay: Binding / cross-reactivity to mouse CD137
Sequence of mouse CD137 (P20334 24-256): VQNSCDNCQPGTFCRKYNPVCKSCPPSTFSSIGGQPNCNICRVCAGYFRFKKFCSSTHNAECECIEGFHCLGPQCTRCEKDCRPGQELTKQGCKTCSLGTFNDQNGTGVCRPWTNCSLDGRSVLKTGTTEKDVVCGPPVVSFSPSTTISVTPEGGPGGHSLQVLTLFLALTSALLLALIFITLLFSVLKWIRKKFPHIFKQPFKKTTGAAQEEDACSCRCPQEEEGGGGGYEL

[1] = gemcitabine combination study, monotherapies Day 14, combination compared on Day 18, FS122m 5 mg/kg ip Days 0, 2, 4, gemcitabine 120 mg/kg ip Day 0
[2] = gemcitabine combination study, Day 25, relative to the isotype control, gemcitabine 120 mg/kg ip Day 0
[3] = gemcitabine combination study, isotype control 27 days
[4] = cisplatin combination study, Day 17, FS122m 5 mg/kg ip Days 0, 2, 4, cisplatin 10 mg/kg ip Day 0
[5] = cisplatin combination study, FS122m 5 mg/kg ip Days 0, 2, 4, cisplatin 10 mg/kg ip Day 0
[6] = cisplatin combination study, Day 22 post treatment initiation, compared with the isotype control, cisplatin 10 mg/kg ip Day 0
[7] = cisplatin combination study, isotype control 22 days

In the case of Nc1ccn([C@@H]2O[C@H](CO)[C@@H](O)C2(F)F)c(=O)n1 [gemcitabine], the median survival (CT26 colon cancer cells; gemcitabine combination study) is reported as 22 days, the complete tumor regression (CT26 colon cancer cells; gemcitabine combination study) is reported as “no complete tumor regression in any of 9 mice” and the “tumor growth inhibition (TGI)” value (CT26 colon cancer cells; [1]) is reported as 58.2%. For the same molecule, the “tumor growth inhibition (TGI)” value (JC breast cancer cells; [2]) was 47.8%, the median survival (JC breast cancer cells; [3]) was 36 days and the complete tumor regression (JC breast cancer cells; gemcitabine combination study) was “no complete tumor regression in 10 mice”.

In the case of N.N.[Cl][Pt][Cl] [cisplatin], the “tumor growth inhibition (TGI)” value (CT26 colon cancer cells; [4]) is reported as 77.8%, the median survival (CT26 colon cancer cells; [5]) is reported as 36.5 days and the complete tumor regression (CT26 colon cancer cells; cisplatin combination study) is reported as “no complete tumor regression in 10 mice”. The complete tumor regression (CT26 colon cancer cells; gemcitabine combination study) was “no complete tumor regression in 9 mice”, the “tumor growth inhibition (TGI)” value (JC breast cancer cells; [6]) was 44.9% and the median survival (JC breast cancer cells; [7]) was 29 days. For the same molecule, the complete tumor regression (JC breast cancer cells; cisplatin combination study) was “no complete tumor regression in 10 mice” and the complete tumor regression (JC breast cancer cells; gemcitabine combination study) was “no complete tumor regression in 10 mice”.

For “urelumab: 1st generation CD137 agonist antibody”, the clinical toxicity (CD137) is given as “hepatotoxicity”.

B1: FS122m: mouse surrogate mAb2 of M9657 binding mouse MSLN and murine CD137, human IgG1 LALA; SEQ ID NOs 84 and 85 (antibody)
heavy: EVQLLESGGGLVQPGGSLRLSCAASGFTFSTYFMVWVRQAPGKGLEWVSMISPKSSNTYYADSVKGRFTISRDNSKNTLYLQMNSLRAEDTAVYYCARYHISPRFDYWGQGTLVTVSSASTKGPSVFPLAPSSKSTSGGTAALGCLVKDYFPEPVTVSWNSGALTSGVHTFPAVLQSSGLYSLSSVVTVPSSSLGTQTYICNVNHKPSNTKVDKKVEPKSCDKTHTCPPCPAPEAAGGPSVFLFPPKPKDTLMISRTPEVTCVVVDVSHEDPEVKFNWYVDGVEVHNAKTKPREEQYNSTYRVVSVLTVLHQDWLNGKEYKCKVSNKALPAPIEKTISKAKGQPREPQVYTLPPSRDEPYWSYVSLTCLVKGFYPSDIAVEWESNGQPENNYKTTPPVLDSDGSFFLYSKLTVMNYRWELGNVFSCSVMHEALHNHYTQKSLSLSPGK
light: EIVLTQSPGTLSLSPGERATLSCRASQSVSSSYLAWYQQKPGQAPRLLIYGASSRATGIPDRFSGSGSGTDFTLTISRLEPEDFAVYYCQQPFPFSFTFGQGTKVEIKRTVAAPSVFIFPPSDEQLKSGTASVVCLLNNFYPREAKVQWKVDNALQSGNSQESVTEQDSKDSTYSLSSTLTLSKADYEKHKVYACEVTHQGLSSPVTKSFNRGEC
modifications: FS122m (surrogate anti-mMSLN mCD137 Fcab G1-AA): Heavy chain AA (with LALA); Light chain AA
With B1 the “binding affinity for mouse MSLN” value (mouse MSLN; compared with binding affinity of M9657 for human MSLN) was “similar”, the “tumor growth inhibition (TGI)” value (CT26 colon cancer cells; [4]) was 61.3% and the median survival (CT26 colon cancer cells; [5]) was 24 days. The complete tumor regression (CT26 colon cancer cells; cisplatin combination study) was 2 of 10 and 2 out of 10, the median survival (CT26 colon cancer cells; gemcitabine combination study) was 35 days and the complete tumor regression (CT26 colon cancer cells; gemcitabine combination study) was 3 of 9. For the same molecule, the “tumor growth inhibition (TGI)” value (CT26 colon cancer cells; [1]) was 61.4%, the “tumor growth inhibition (TGI)” value (JC breast cancer cells; [6]) was 60.1% and the median survival (JC breast cancer cells; [7]) was 33 days. The complete tumor regression (JC breast cancer cells; cisplatin combination study) was 2 of 10, the “tumor growth inhibition (TGI)” value (JC breast cancer cells; [2]) was 45.8% and the median survival (JC breast cancer cells; [3]) was 34 days. For the same molecule, the complete tumor regression (JC breast cancer cells; gemcitabine combination study) was 1 of 10 and 1 out of 10 and the “binding affinity for mouse CD137” value (mouse CD137; compared with binding affinity of M9657 for human CD137) was “similar”.

B2: M9657: tetravalent bispecific mAb2, Fab binds MSLN, CH3 Fcab binds CD137, human IgG1-LALA; heavy/light chain SEQ ID NOs 2 and 10 (antibody)
heavy: EVQLLESGGGLVQPGGSLRLSCAASGFTFTHTYMSWVRQAPGKGLEWVSAISPTYSTTNYADSVKGRFTISRDNNKNTLYLQMNSLRAEDTAVYYCARYNAYHAALDYWGQGTLVTVSSASTKGPSVFPLAPSSKSTSGGTAALGCLVKDYFPEPVTVSWNSGALTSGVHTFPAVLQSSGLYSLSSVVTVPSSSLGTQTYICNVNHKPSNTKVDKKVEPKSCDKTHTCPPCPAPEAAGGPSVFLFPPKPKDTLMISRTPEVTCVVVDVSHEDPEVKFNWYVDGVEVHNAKTKPREEQYNSTYRVVSVLTVLHQDWLNGKEYKCKVSNKALPAPIEKTISKAKGQPREPQVYTLPPSRDELPYIIPPYNQVSLTCLVKGFYPSDIAVEWESNGQPENNYKTTPPVLDSDGSFFLYSKLTVGADRWLEGNVFSCSVMHEALHNHYTQKSLSLSPG
light: EIVLTQSPGTLSLSPGERATLSCRASQSVSSSYLAWYQQKPGQAPRLLIYGASSRATGIPDRFSGSGSGTDFTLTISRLEPEDFAVYYCQQTVPYPYTFGQGTKVEIKRTVAAPSVFIFPPSDEQLKSGTASVVCLLNNFYPREAKVQWKVDNALQSGNSQESVTEQDSKDSTYSLSSTLTLSKADYEKHKVYACEVTHQGLSSPVTKSFNRGEC
modifications: Heavy chain AA (with LALA); Light chain AA
In the case of B2, the “cross-reactivity with mouse MSLN” value (mouse MSLN) is reported as “lack of cross-reactivity” and the “cross-reactivity with mouse CD137” value (mouse CD137) is reported as “lack of cross-reactivity”.
